Results from patent publication US20090312251.

Columns and labels:
[1] = target: His-YAP-SA (recombinant hexahistidine-tagged YAP serine to alanine mutant, pET-15b)
[2] = target: YAP S127A mutant (human YAP, transfected, Flag- or HA-tagged)

| Protein | in-vitro kinase assay, 32P-labeled YAP by autoradiography [1] | phosphorylation of YAP in co-transfected WW45-deficient keratinocytes (Western blot) [2] |
| --- | --- | --- |
| LATS1 (human cDNA, GenBank Accession No. NP-004681.1, Flag- or HA-tagged) (protein) MKRSEKPEGYRQMRPKTFPASNYTVSSRQMLQEIRESLRNLSKPSDAAKAEHNMSKMSTEDPRQVRNPPKFGTHHKALQEIRNSLLPFANETNSSRSTSEVNPQMLQDLQAAGFDEDMVIQALQKTNNRSIEAAIEFISKMSYQDPRREQMAAAAARPINASMKPGNVQQSVNRKQSWKGSKESLVPQRHGPPLGESVAYHSESPNSQTDVGRPLSGSGISAFVQAHPSNGQRVNPPPPPQVRSVTPPPPPRGQTPPPRGTTPPPPSWEPNSQTKRYSGNMEYVISRISPVPPGAWQEGYPPPPLNTSPMNPPNQGQRGISSVPVGRQPIIMQSSSKFNFPSGRPGMQNGTGQTDFMIHQNVVPAGTVNRQPPPPYPLTAANGQSPSALQTGGSAAPSSYTNGSIPQSMMVPNRNSHNMELYNISVPGLQTNWPQSSSAPAQSSPSSGHEIPTWQPNIPVRSNSFNNPLGNRASHSANSQPSATTVTAITPAPIQQPVKSMRVLKPELQTALAPTHPSWIPQPIQTVQPSPFPEGTASNVTVMPPVAEAPNYQGPPPPYPKHLLHQNPSVPPYESISKPSKEDQPSLPKEDESEKSYENVDSGDKEKKQITTSPITVRKNKKDEERRESRIQSYSPQAFKFFMEQHVENVLKSHQQRLHRKKQLENEMMRVGLSQDAQDQMRKMLCQKESNYIRLKRAKMDKSMFVKIKTLGIGAFGEVCLARKVDTKALYATKTLRKKDVLLRNQVAHVKAERDILAEADNEWVVRLYYSFQDKDNLYFVMDYIPGGDMMSLLIRMGIFPESLARFYIAELTCAVESVHKMGFIHRDIKPDNILIDRDGHIKLTDFGLCTGFRWTHDSKYYQSGDHPRQDSMDFSNEWGDPSSCRCGDRLKPLERRAARQHQRCLAHSLVGTPNYIAPEVLLRTGYTQLCDWWSVGVILFEMLVGQPPFLAQTPLETQMKVINWQTSLHIPPQAKLSPEASDLIIKLCRGPEDRLGKNGADEIKAHPFFKTIDFSSDLRQQSASYIPKITHPTDTSNFDPVDPDKLWSDDNEEENVNDTLNGWYKNGKHPEHAFYEFTFRRFFDDNGYPYNYPKPIEYEYINSQGSEQQSDEDDQNTGSEIKNRDLVYV | markedly reduced levels of phosphorylation of YAP S127A mutant by LATS1/2 |  |
| LATS2 (human cDNA, GenBank Accession No. NP-055387.2, Flag- or HA-tagged) (protein) MRPKTFPATTYSGNSRQRLQEIREGLKQPSKSSVQGLPAGPNSDTSLDAKVLGSKDATRQQQQMRATPKFGPYQKALREIRYSLLPFANESGTSAAAEVNRQMLQELVNAGCDQEMAGRALKQTGSRSIEAALEYISKMGYLDPRNEQIVRVIKQTSPGKGLMPTPVTRRPSFEGTGDSFASYHQLSGTPYEGPSFGADGPTALEEMPRPYVDYLFPGVGPHGPGHQHQHPPKGYGASVEAAGAHFPLQGAHYGRPHLLVPGEPLGYGVQRSPSFQSKTPPETGGYASLPTKGQGGPPGAGLAFPPPAAGLYVPHPHHKQAGPAAHQLHVLGSRSQVFASDSPPQSLLTPSRNSLNVDLYELGSTSVQQWPAATLARRDSLQKPGLEAPPRAHVAFRPDCPVPSRTNSFNSHQPRPGPPGKAEPSLPAPNTVTAVTAAHILHPVKSVRVLRPEPQTAVGPSHPAWVPAPAPAPAPAPAPAAEGLDAKEEHALALGGAGAFPLDVEYGGPDRRCPPPPYPKHLLLRSKSEQYDLDSLCAGMEQSLRAGPNEPEGGDKSRKSAKGDKGGKDKKQIQTSPVPVRKNSRDEEKRESRIKSYSPYAFKFFMEQHVENVIKTYQQKVNRRLQLEQEMAKAGLCEAEQEQMRKILYQKESNYNRLKRAKMDKSMFVKIKTLGIGAFGEVCLACKVDTHALYAMKTLRKKDVLNRNQVAHVKAERDILAEADNEWVVKLYYSFQDKDSLYFVMDYIPGGDMMSLLIRMEVFPEHLARFYIAELTLAIESVHKMGFIHRDIKPDNILIDLDGHIKLTDFGLCTGFRWTHNSKYYQKGSHVRQDSMEPSDLWDDVSNCRCGDRLKTLEQRARKQHQRCLAHSLVGTPNYIAPEVLLRKGYTQLCDWWSVGVILFEMLVGQPPFLAPTPTETQLKVINWENTLHIPAQVKLSPEARDLITKLCCSADHRLGRNGADDLKAHPFFSAIDFSSDIRKQPAPYVPTISHPMDTSNFDPVDEESPWNDASEGSTKAWDTLTSPNNKHPEHAFYEFTFRRFFDDNGYPFRCPKPSGAEASQAESSDLESSDLVDQTEGCQPVYV | markedly reduced levels of phosphorylation of YAP S127A mutant by LATS1/2 | only the S127A mutant was not phosphorylated by activated LATS2 in cells |
